Earlier results in paper PMC3413316.
pKd: −log10 of the molar value.

Legend:
[1] = target: Activated protein C (Homo sapiens) (UniProt P04070)
Protein C (Homo sapiens) = Protein C (Homo sapiens) (UniProt P04070)
Protein C (Homo sapiens), sequence (P04070 43-197): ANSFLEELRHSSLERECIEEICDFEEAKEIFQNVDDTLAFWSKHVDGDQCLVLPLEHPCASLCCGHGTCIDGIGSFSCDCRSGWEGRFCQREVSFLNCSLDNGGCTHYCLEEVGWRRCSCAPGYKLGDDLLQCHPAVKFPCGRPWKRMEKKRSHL

EPCR, sequence (Q9UNN8 18-210): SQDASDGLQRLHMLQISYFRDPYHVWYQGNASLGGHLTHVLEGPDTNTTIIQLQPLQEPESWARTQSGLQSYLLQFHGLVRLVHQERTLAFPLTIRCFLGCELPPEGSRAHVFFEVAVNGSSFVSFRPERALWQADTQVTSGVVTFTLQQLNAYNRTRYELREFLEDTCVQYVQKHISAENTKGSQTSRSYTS
Activated protein C (Homo sapiens), sequence (P04070 43-197, chain 1 of 2): as the sequence (P04070 43-197) above
Activated protein C (Homo sapiens), sequence (P04070 212-461, chain 2 of 2): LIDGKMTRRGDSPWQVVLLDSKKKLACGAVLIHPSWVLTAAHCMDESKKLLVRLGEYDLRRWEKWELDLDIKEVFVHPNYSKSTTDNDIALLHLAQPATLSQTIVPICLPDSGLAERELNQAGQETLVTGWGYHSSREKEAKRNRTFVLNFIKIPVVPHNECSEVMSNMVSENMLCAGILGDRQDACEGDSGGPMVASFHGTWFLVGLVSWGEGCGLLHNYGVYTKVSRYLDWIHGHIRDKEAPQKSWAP

For EPCR (from UniProt Q9UNN8), the pKd [1] is listed as 7.22 and the pKd (Protein C (Homo sapiens)) is listed as 7.22.
